Experiments:
[1] = target: ED-B fibronectin antigen protein (recombinant), bound to CNBr activated sepharose 4B (UniProt P02751); test: ED-B sepharose column, % of total radioactivity bound; Study A; no-excipient control (saline); day 3
[2] = target: ED-B fibronectin antigen protein (recombinant), bound to CNBr activated sepharose 4B (UniProt P02751); test: ED-B sepharose column, % of total radioactivity bound; Study A; methionine 25 mg/mL; day 1
[3] = target: ED-B fibronectin antigen protein (recombinant), bound to CNBr activated sepharose 4B (UniProt P02751); test: ED-B sepharose column, % of total radioactivity bound; Study A; sodium thiosulfate 25 mg/mL; day 7
[4] = target: ED-B fibronectin antigen protein (recombinant), bound to CNBr activated sepharose 4B (UniProt P02751); test: ED-B sepharose column, % of total radioactivity bound; Study A; trolox 5 mg/mL; day 7
[5] = target: ED-B fibronectin antigen protein (recombinant), bound to CNBr activated sepharose 4B (UniProt P02751); test: ED-B sepharose column, % of total radioactivity bound; Study A; maltose 5 mg/mL; day 7
[6] = target: ED-B fibronectin antigen protein (recombinant), bound to CNBr activated sepharose 4B (UniProt P02751); test: ED-B sepharose column, % of total radioactivity bound; Study A; inositol 50 mg/mL; day 1
[7] = target: ED-B fibronectin antigen protein (recombinant), bound to CNBr activated sepharose 4B (UniProt P02751); test: ED-B sepharose column, % of total radioactivity bound; Study A; sodium thiosulfate 25 mg/mL; day 1
[8] = target: ED-B fibronectin antigen protein (recombinant), bound to CNBr activated sepharose 4B (UniProt P02751); test: ED-B sepharose column, % of total radioactivity bound; Study A; maltose 10 mg/mL; day 1
[9] = target: ED-B fibronectin antigen protein (recombinant), bound to CNBr activated sepharose 4B (UniProt P02751); test: ED-B sepharose column, % of total radioactivity bound; Study A; inositol 10 mg/mL; day 0
[10] = target: ED-B fibronectin antigen protein (recombinant), bound to CNBr activated sepharose 4B (UniProt P02751); test: ED-B sepharose column, % of total radioactivity bound; Study A; inositol 25 mg/mL; day 1
[11] = target: ED-B fibronectin antigen protein (recombinant), bound to CNBr activated sepharose 4B (UniProt P02751); test: ED-B sepharose column, % of total radioactivity bound; Study B3; inositol 10 mg/mL; day 3
[12] = target: ED-B fibronectin antigen protein (recombinant), bound to CNBr activated sepharose 4B (UniProt P02751); test: ED-B sepharose column, % of total radioactivity bound; Study B3; ascorbic acid 25 mg/mL; day 7
[13] = target: ED-B fibronectin antigen protein (recombinant), bound to CNBr activated sepharose 4B (UniProt P02751); test: ED-B sepharose column, % of total radioactivity bound; Study A; maltose 5 mg/mL; day 5
[14] = target: ED-B fibronectin antigen protein (recombinant), bound to CNBr activated sepharose 4B (UniProt P02751); test: ED-B sepharose column, % of total radioactivity bound; Study B3; ascorbic acid 25 mg/mL; day 0
[15] = target: ED-B fibronectin antigen protein (recombinant), bound to CNBr activated sepharose 4B (UniProt P02751); test: ED-B sepharose column, % of total radioactivity bound; Study B3; no-excipient control (PBS); day 7
[16] = target: ED-B fibronectin antigen protein (recombinant), bound to CNBr activated sepharose 4B (UniProt P02751); test: ED-B sepharose column, % of total radioactivity bound; Study B3; thioglycerol 10 mg/mL; day 5
[17] = target: ED-B fibronectin antigen protein (recombinant), bound to CNBr activated sepharose 4B (UniProt P02751); test: ED-B sepharose column, % of total radioactivity bound; Study A; inositol 25 mg/mL; day 7
[18] = target: ED-B fibronectin antigen protein (recombinant), bound to CNBr activated sepharose 4B (UniProt P02751); test: ED-B sepharose column, % of total radioactivity bound; Study A; inositol 5 mg/mL; day 1
[19] = target: ED-B fibronectin antigen protein (recombinant), bound to CNBr activated sepharose 4B (UniProt P02751); test: ED-B sepharose column, % of total radioactivity bound; Study A; inositol 25 mg/mL; day 3
[20] = target: ED-B fibronectin antigen protein (recombinant), bound to CNBr activated sepharose 4B (UniProt P02751); test: ED-B sepharose column, % of total radioactivity bound; Study A; methionine 10 mg/mL; day 7
[21] = target: ED-B fibronectin antigen protein (recombinant), bound to CNBr activated sepharose 4B (UniProt P02751); test: ED-B sepharose column, % of total radioactivity bound; Study B3; inositol 10 mg/mL; day 0
[22] = target: ED-B fibronectin antigen protein (recombinant), bound to CNBr activated sepharose 4B (UniProt P02751); test: ED-B sepharose column, % of total radioactivity bound; Study A; sodium thiosulfate 10 mg/mL; day 5
[23] = target: ED-B fibronectin antigen protein (recombinant), bound to CNBr activated sepharose 4B (UniProt P02751); test: ED-B sepharose column, % of total radioactivity bound; Study B3; human serum albumin 10 mg/mL; day 0
[24] = target: ED-B fibronectin antigen protein (recombinant), bound to CNBr activated sepharose 4B (UniProt P02751); test: ED-B sepharose column, % of total radioactivity bound; Study A; inositol 50 mg/mL; day 3
[25] = target: ED-B fibronectin antigen protein (recombinant), bound to CNBr activated sepharose 4B (UniProt P02751); test: ED-B sepharose column, % of total radioactivity bound; Study B3; human serum albumin 10 mg/mL; day 5
[26] = target: ED-B fibronectin antigen protein (recombinant), bound to CNBr activated sepharose 4B (UniProt P02751); test: ED-B sepharose column, % of total radioactivity bound; Study B3; human serum albumin 10 mg/mL; day 3
[27] = target: ED-B fibronectin antigen protein (recombinant), bound to CNBr activated sepharose 4B (UniProt P02751); test: ED-B sepharose column, % of total radioactivity bound; Study A; sodium thiosulfate 25 mg/mL; day 3
[28] = target: ED-B fibronectin antigen protein (recombinant), bound to CNBr activated sepharose 4B (UniProt P02751); test: ED-B sepharose column, % of total radioactivity bound; Study A; inositol 50 mg/mL; day 0

Chain of 131I L19-SIP (radioiodinated L19 SIP homodimer) (chain): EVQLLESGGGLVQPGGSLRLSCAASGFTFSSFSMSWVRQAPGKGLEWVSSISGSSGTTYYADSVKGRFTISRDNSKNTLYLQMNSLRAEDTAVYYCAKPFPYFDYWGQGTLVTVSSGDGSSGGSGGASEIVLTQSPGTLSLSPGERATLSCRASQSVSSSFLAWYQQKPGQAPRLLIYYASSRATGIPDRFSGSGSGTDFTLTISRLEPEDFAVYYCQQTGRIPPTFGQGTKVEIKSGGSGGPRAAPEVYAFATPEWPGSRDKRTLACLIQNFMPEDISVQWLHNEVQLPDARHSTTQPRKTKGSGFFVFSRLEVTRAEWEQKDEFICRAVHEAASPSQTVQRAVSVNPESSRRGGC
Chain of 131I L19-SIP (radioiodinated L19 SIP homodimer) (chain): as above
Chain of UniProt P02751 (P02751 1266-1356 limits assumed): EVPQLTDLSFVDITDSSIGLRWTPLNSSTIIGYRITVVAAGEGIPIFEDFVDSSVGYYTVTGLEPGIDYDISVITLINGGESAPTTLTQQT

Immunoreactivity (%) [1]: 59.8%
Immunoreactivity (%) [2]: 89.6%
Immunoreactivity (%) [3]: 78.5%
Immunoreactivity (%) [4]: 52.9%
Immunoreactivity (%) [5]: 50%
Immunoreactivity (%) [6]: 89.3%
Immunoreactivity (%) [7]: 95%
Immunoreactivity (%) [8]: 85.4%
Immunoreactivity (%) [9]: 93.4%
Immunoreactivity (%) [10]: 88.7%
Immunoreactivity (IR) (%) [11]: 74.8%
Immunoreactivity (IR) (%) [12]: 55.3%
Immunoreactivity (%) [13]: 57%
Immunoreactivity (IR) (%) [14]: 74.1%
Immunoreactivity (IR) (%) [15]: 28.2%
Immunoreactivity (IR) (%) [16]: 46.8%
Immunoreactivity (%) [17]: 62.8%
Immunoreactivity (%) [18]: 87.1%
Immunoreactivity (%) [19]: 68.5%
Immunoreactivity (%) [20]: 54.8%
Immunoreactivity (IR) (%) [21]: 59.5%
Immunoreactivity (%) [22]: 81.3%
Immunoreactivity (IR) (%) [23]: 76.3%
Immunoreactivity (%) [24]: 71.6%
Immunoreactivity (IR) (%) [25]: 53%
Immunoreactivity (IR) (%) [26]: 60.6%
Immunoreactivity (%) [27]: 92.3%
Immunoreactivity (%) [28]: 92.3%
Substance: 131I L19-SIP (radioiodinated L19 SIP homodimer)

Source: patent WO2011147762A2
